Results from patent US9791436B2, “Protease-based biosensor” (priority 2012, dated 2017).
Positions count from the first letter of the chain named.

B1: 2B4-AP: thrombin-inducible autoinhibited TVMV biosensor, SEQ ID NO: 3 (protein)
chain: SSGSKALLKGVRDFNPISACVCLLENSSDGHSERLFGIGFGPYIIANQHLFRRNNGELTIKTMHGEFKVKNSTQLQMKPVEGRDIIVIKMAKDFPPFPQKLKFRQPTIKDRVCMVSTNFQQKSVSSLVSESSHIVHMRDTSFWQHWITTKDGQCGSPLVSIIDGNILGIHSLTHTTNGSNYFVEFPEKFVATYLDAADGWCKNWKFNADKISWGSFTLVEDAPSGLVPRGVSGEGETVRFAPGSTHHHHHH
modifications: protease construct
B2: 2B4-GP: thrombin-inducible autoinhibited TVMV biosensor, SEQ ID NO: 2 (protein)
chain: B1 chain with A241G
modifications: protease construct
B3: SH3-TVMV-AC-AI-37-2: SH3-domain-tagged TVMV-based allosteric receptor, SEQ ID NO: 28 (protein)
chain: SGGSGAEYVRALFDFNGNDEEDLPFKKGDILRIRDKPEEQWWNAEDSEGKRGMIPVPYVEKYRPASASVSALIGGRGGSGGSGGSGGSGGSGGSSKALLKGVRDFNPISACVCLLENSSDGHSERLFGIGFGPYIIANQHLFRRNNGELTIKTMHGEFKVKNSTQLQMKPVEGRDIIVIKMAKDFPPFPQKLKFRQPTIKDRVCMVSTNFQQKSVSSLVSESSHIVHKEDTSFWQHWITTKDGQCGSPLVSIIDGNILGIHSLTHTTNGSNYFVEFPEKFVATYLDAADGWCKNWKFNADKISWGSFILWESGSPELGFSISGGVGGRGNPFRPDDDGIFVTRVQPEGPASKLLQPGDKIIQANGYSFINIEHGQAVSLLKTFQNTVELIIVREVGNGAKQEIRVRVEKDGGSGGGGVSSVPTNLEVVAATPTSLLISWDAYRELPVSYYRITYGETGGNSPVQEFTVPGSKSTATISGLKPGVDYTITVYAHYNYHYYSSPISINYRGPGREYVRFAPGSTHHHHHH
modifications: protease construct
B4: 68-GP: thrombin-inducible autoinhibited TVMV biosensor, SEQ ID NO: 4 (protein)
chain: SSGSKALLKGVRDFNPISACVCLLENSSDGHSERLFGIGFGPYIIANQHLFRRNNGELTIKTMHGEFKVKNSTQLQMKPVEGRDIIVIKMAKDFPPFPQKLKFRQPTIKDRVCMVSTNFQQKSVSSLVSESSHIVHMRDTSFWQHWITTKDGQCGSPLVSIIDGNILGIHSLTHTTNGSNYFVEFPEKFVATYLDAADGWCKNWKFNADKISWGSFILWEDSGLVPRGVSGEGEYVRFGPGSTHHHHHH
modifications: protease construct
B5: 68-AP: thrombin-inducible autoinhibited TVMV biosensor, SEQ ID NO: 5 (protein)
chain: B4 chain with G239A
modifications: protease construct
B6: H6-143: thrombin-inducible autoinhibited TVMV biosensor, SEQ ID NO: 6 (protein)
chain: SSGSKALLKGVRDFNPISACVCLLENSSDGHSERLFGIGFGPYIIANQHLFRRNNGELTIKTMHGEFKVKNSTQLQMKPVEGRDIIVIKMAKDFPPFPQKLKFRQPTIKDRVCMVSTNFQQKSVSSLVSESSHIVHKEDTSFWQHWITTKDGQCGSPLVSIIDGNILGIHSLTHTTNGSNYFVEFPEKFVATYLDAADGWCKNWKFNADKISWGSFYLYEDAPEDFMSGLVPRGVGREYVRFAPGSTHHHHHH
modifications: protease construct
B7: H6-AP: thrombin-inducible autoinhibited TVMV biosensor, SEQ ID NO: 1 (protein)
chain: B6 chain with Y217T, Y219V, Y239T
modifications: protease construct
B8: H6-68: thrombin-inducible autoinhibited TVMV biosensor, SEQ ID NO: 7 (protein)
chain: B6 chain with Y217I, Y219W
modifications: protease construct

What was measured:
bovine thrombin = target: T1, bovine thrombin (Bos taurus, UniProt P00735); test: Thrombin induction of autoinhibited TVMV-based biosensor protease activity (quenched fluorescent TVMV substrate); type: biochemical; settings: biosensor 1 μM, 10 μM protease substrate, presence vs absence of bovine thrombin (1 U per 200 μL)
T1 construct: addition of bovine thrombin (1 U per 200 μL)
Experimental: Libraries of autoinhibited TVMV mutants were transformed into chemically competent BL21(DE3)-RIL cells hosting the autolysis plasmid 05665 (FIG. 2A) and plated onto LB agar plates supplemented with 100 μg/mL carbenicillin, 50 μg/mL kanamycin and 34 μg/mL chloramphenicol. Following overnight incubation at 37° C., single colonies were inoculated into 96 deep-well plates filled with minimal auto-induction medium (1 mL) which was supplemented with 100 μg/mL carbenicillin, 50 μg/mL kanamycin and 34 μg/mL chloramphenicol. Cells were left to grow for 72 h at 30° C. at 320 rpm and typically reached OD values of approximately 10. To lyse cells, aliquots of cell cultures (100 μL) from half a 96-well-plate (48 samples) were diluted two-fold into autolysis medium (100 μL) and left to incubate for 90 min at 30° C. at 200 rpm. Aliquots of cell lysates (10 μL) were duplicated after transferring them into separate halves of a black 96-well-plate filled with protease assay buffer (140 μL). One of the halves additionally contained 1 U thrombin in order to cleave the linker connecting TVMV to its autoinhibition domain and relieve autoinhibtion. The reaction was initiated following the addition of substrate solution (50 μL) which gave rise to 10 μM TVMV substrate peptide in the final reaction. The reaction was monitored using a fluorometer (Biotek Synergy 4) by measuring the release of a quenched fluorophore (7-Methoxycoumarinyl-4-acetyl) at 405 nm following excitation at 330 nm. The induction of TVMV-based protease activities was evaluated by comparing the time course of the reactions in the presence and absence of thrombin. The plasmids encoding for desirable mutants were subsequently isolated from single colonies and their identity confirmed by Sanger sequencing.
To measure induction ratios under saturating reaction conditions, TVMV- and HCV-based signal transducers (5 μg) were pre-incubated for 10 min in 150 μL protease assay buffer (50 mM Tris-HCl, 1 mM DTT and 0.5 mM EDTA, pH 8.0 for TVMV, and 50 mM Tris-HCl, 50 mM NaCl and 1 mM DTT, pH 8.0 for HCV) in the presence and absence of the inducing protease: i.e. 1 U thrombin, 1 U Factor Xa, 5 μg PSA, 1 μg MMP-7 and 1 μg for MMP-9 for TVMV-based signal transducers as indicated, and 5 μg TVMV for HCV-based signal transducers. The reaction was initiated following the addition of 50 μL substrate solution that contained 40 μM peptide substrate and gave rise to 10 μM peptide substrate in a final reaction volume of 200 μL. The reaction was monitored using a fluorometer (Biotek Synergy 4) by measuring the release of 7-Methoxycoumarinyl-4-acetyl from the quenched substrate peptide at 405 nm following excitation at 330 nm. The induction ratio of TVMV-based protease activities in the inhibited and uninhibited state was evaluated by comparing the reaction in the presence and absence of the activating protease. Activity traces labelled as ‘Background’ generally denote control samples that contain peptide substrate, but no enzyme.
The biosensor (1 μM) was incubated together with 10 μM protease substrate in 50 mM Tris-HCl, 1 mM DTT and 0.5 mM EDTA. Relief of autoinhibition was achieved upon addition of bovine thrombin (1 U per 200 μL).

[1] = target: T2, PDZ ligand peptide-1 (RGSIDTWV) (Homo sapiens, UniProt Q96RT1); test: Protease signalling cascade: SH3-tagged TVMV-based allosteric receptor coupled to HCV-based signal amplifier, ligand titration; type: biochemical
T2 construct: made in house; host or cells: E. coli BL21(DE3)-RIL
Experimental: Signalling cascades consisting of SH3-domain-tagged TVMV-based allosteric receptors (10 nM) and SH3-peptide-tagged TVMV-inducible HCV-based signal transducers (200 nM) were measured in protease assay buffer consisting of 50 mM Tris-HCl, 200 mM NaCl and 1 mM DTT, pH 8.0. The reaction was strictly initiated by simultaneously adding the TVMV-based allosteric receptor and HCV substrate peptide to a final concentration of 10 μM along with the PDZ ligand peptide-1 ([…]) at a final concentration of 10 μM. To determine the KD of TVMV-based allosteric receptors, the PDZ ligand peptide-1 ([…]) was suitably diluted over a concentration range from 2 nM to 400 nM as indicated in FIG. 13B. To determine the KD, initial rates were plotted against ligand concentrations and the fitted values analysed by non-linear regression assuming a one-site specific binding model (GraphPad Prism 5).

Molecule | Fold Induction (bovine thrombin) | improvement of the sensitivity of the assay [1] [fold] | concentration of receptor faithfully detected ([1]; FIG. 13B) [nM]
B1 | ~25 fold | – | –
B2 | ~17 fold | – | –
B3 | – | 20 | 5
B4 | ~60 fold | – | –
B5 | ~100 fold | – | –
B6 | ~60 fold | – | –
B7 | ~50 fold | – | –
B8 | ~150-200 fold | – | –
